# B1: miR-192: microRNA miR-192 (SEQ ID NO:1), transfected into cells as miR-192 precursor (Ambion) (nucleic acid)
# chain: GCCGAGACCGAGUGCACAGGGCUCUGACCUAUGAAUUGACAGCCAGUGCUCUCGUCUCCCCUCUGGCUGCCAAUUCCAUAGGUCACAGGUAUGUUCGCCUCAAUGCCAGC
# modifications: delivered as precursor, further chemistry not given here
# Key:
# Rb = experiment: Western immunoblot of Rb, HCT-116 (wt-p53); format: cell-based, human
# Protocol: The expression of miR-192 on the expression of E2F3 and Rb in HCT-116 (wt-p53) cells was also analyzed. In these experiments, HVT-116 (wt-p53) cells, as described above (see Example 3) were transfected with non-specific miR (FIG. 7, lane 2), DHFR siRNA (FIG. 7, lane 3) or miR-192 (FIG. 7, lane 4) according to the procedure described above (see Examples 1 and 2). One HCT-116 (wt-p53) sample was not transfected, and used as a negative control (FIG. 7, lane 1). Western immunoblot analysis was performed according to the procedure described above (see Example 5), except that rabbit anti-E2F-3 polyclonal antibody (1:1000, C-18) (Santa Cruz Biotechnology) was used.
# TS mRNA = experiment: real time qRT-PCR of TS mRNA; format: cell-based; conditions: U-2 OS cells
# Protocol: Expression levels of TS or DHFR mRNA were analyzed using real time qRT-PCR analysis (FIG. 15).
# HCT-116 (wt-p53) cells [1] = experiment: WST-1 cellular proliferation after miR-192 transfection; format: cell-based, human; conditions: overexpression vs non-specific miR, n=3
# Protocol: (§1) miR-192 inhibits cell proliferation of HCT-116 (wt-p53), RKO (wt-p53) and HT-29 (mut-p53) colon cancer cell lines. To assess the functional significance of miR-192, the impact of miR-192 on cellular proliferation was evaluated using HCT-116 (wt-p53), HCT-116 (null-p53), RKO (wt-p53) and HT-29 (mut-p53) colon cancer cell lines. The human colon cancer cell lines HCT-116 (wt-p53) and HCT-116 (null-p53) were provided by Prof Bert Vogelstein (The Johns Hopkins University) and were maintained in McCoy's 5A medium (Life Technologies). The other two human colon cancer cell lines, RKO (wt-p53) and HT-29 (mut-p53), were obtained from the American Type Culture Collection. The HT-29 (mut-p53) cell line has a missense mutation in codon 273 of p53 resulting in an Argto-His substitution. RKO (wt-p53) and HT-29 (mut-p53) cells were maintained in Eagle's MEM and Iscove's Modified Dulbecco's Medium at the American Type Culture Collection, respectively. All media were supplemented with 10% dialyzed fetal bovine serum (Hyclone Laboratories). All cell lines were grown at 37° C. in a humidified incubator with 5% CO2. The cell lines were transfected as described above (see Examples 1 and 2).
# (§2) The cellular proliferation was evaluated as follows. HCT-116 (wt-p53) (FIG. 4A), HCT-116 (null-p53) (FIG. 4C), RKO (wt-p53) (FIG. 4B), and HT-29 cells (FIG. 4D) were plated in 96-well plates in triplicate at 1×10^3 cells per well after transfection with miR-192 precursor (illustrated as—Δ—) or non-specific control miRNA (illustrated as—□—). Cells were cultured for 24, 48, 72, or 96 hours. The absorbance at 450 and 630 nm was measured after incubation with 10 μl of WST-1 for 2 hours. A non-specific miR was used as a negative control.
# RKO (wt-p53) cells = experiment: as above; format: cell-based, human; conditions: n=3
# Protocol: as §1, §2
# HT-29 (mut-p53) cells = experiment: as above; format: cell-based, human; conditions: HT-29, n=3
# Protocol: as §1, §2
# HCT-116 (null-p53) cells = experiment: as above; format: cell-based, human; conditions: n=3
# Protocol: as §1, §2
# p21 = experiment: western immunoblot of p21 in HCT-116 (wt-p53) and U-2 OS cells; format: cell-based; conditions: both HCT-116 (wt-p53) and U-2 OS cells, 48 h after transfection
# From the text: miR-215 increases the expression of cell cycle control genes p53 and p21. p53 and p21, a downstream target of the p53 pathway of growth control, are reported to block cells at G2 checkpoint mainly through inhibiting activity of Cdc2, the cyclin-dependent kinase that normally drives cells into mitosis, which is the ultimate target of pathways that mediate rapid arrest in G2 in response to DNA damage. To further analyze the mechanism of cell proliferation inhibition by miR-215, we transfected miR-215 precursor into HCT-116 (wt-p53) and U-2 OS cells, and evaluated the levels of cell cycle control genes p53 and p21 by western immunoblot analysis.
# HCT-116 (wt-p53) cells [2] = experiment: WST-1 cell proliferation with MTX treatment after transfection; format: cell-based, human; conditions: 72 hours
# Protocol: HCT-116 (wt-p53) cells were plated in 96-well plates at 1×10^3 cells/well in triplicate. They were transfected with miR-192 precursor (FIG. 3, lane 4), non-specific control miRNA (FIG. 3, lane 2), or siRNA against DHFR (FIG. 3, lane 3) in 100 μl of medium. […] Ten microliters of WST-1 (Roche Applied Science) was added to each well. After 2 hours of incubation, absorbance was measured at 450 and 630 nm respectively (n=3).
molecule,measurement,setting,value
B1,expression of Rb,Rb,decreased expression
same,TS mRNA expression,TS mRNA,no reduction
same,suppression of cellular proliferation,HCT-116 (wt-p53) cells [1],over 55%
same,suppression of cellular proliferation,RKO (wt-p53) cells,48%
same,suppression of cellular proliferation,HT-29 (mut-p53) cells,24%
same,suppression of cellular proliferation,HCT-116 (null-p53) cells,15%
same,p21 protein level,p21,significant increase
same,effect in combination with MTX,HCT-116 (wt-p53) cells [2]; MTX 25 nM,synergistic effect
same,cell proliferation reduced,HCT-116 (wt-p53) cells [2]; transfected cells in combination with MTX 25 nM,~70%

# Source: patent publication US8927207B2, “miRNAs as therapeutic targets in cancer” (Research Foundation of State University of New York, priority 2008, dated 2015)
